Data set [1] deals with CCl4-induced liver fibrosis model mice. The data set can be described thus: Carbon tetrachloride-induced liver fibrosis model. It is filed as in vivo, mouse. Conditions: for Percentage of fibrosis area (Sirius red-positive area), comparison with isotype-matched antibody group: P<0.05, Bonferroni. The method, then:
Seven-week-old female C57BL/6J mice (17˜21 g) were obtained from Japan SLC (Japan).
Mice were divided into 3 groups of 8 mice based on their body weight on the day before the start of the treatment (day 13).
Mice were intraperitoneally administered 5% CCl4 (Sigma-Aldrich, USA) in mineral oil (Sigma-Aldrich) in a volume of 100 μL twice a week (day 0, 4, 7, 11, 14, 18, 21 and 25) after acclimation.
To visualize collagen deposition, sections were cut from paraffin blocks of left lateral liver tissue prefixed in Bouin's solution and stained with picro-Sirius red solution (Waldeck, Germany). For quantitative analysis of fibrosis area, bright field images of Sirius red-stained section were randomly captured using a digital camera (DFC280; Leica Microsystems, Germany) at 100-fold magnification, and the Sirius red-stained positive areas in 5 field/section were measured using ImageJ software (National Institute of Health, USA). The quantification was done in a blinded fashion.
Statistical analyses were performed using Bonferroni Multiple comparison test on GraphPad Prism 4 (GraphPad Software, USA). P values<0.05 were considered statistically significant. Results were expressed as mean±SD.
Eight CCl4-induced liver fibrosis model mice were intravenously administered vehicle supplemented with M1043 Antibody at a dose of 10 mg/kg twice weekly at day 14, 17, 21 and 24. All animals were sacrificed on day 28.

Data set [2] has as its system BLM-induced pulmonary fibrosis model mice. The data set can be described thus: Bleomycin-induced pulmonary fibrosis model. It is filed as in vivo, mouse. Conditions: vs isotype-control antibody group (isotype-control vs disease control group); day 21; Bonferroni, P<0.05. The method, then:
Pathogen-free 7 weeks old female C57BL/6J mice were obtained from Japan SLC, Inc. (Japan). At day 0, 60 mice were induced to develop pulmonary fibrosis by a single intratracheal administration of bleomycin sulphate (BLM, Nippon Kayaku, Japan) in saline at a dose of 3 mg/kg, in a volume of 50 μL per animal using Microsprayer® (Penn-Century, USA).
BLM-induced pulmonary fibrosis model mice were randomized into 4 groups of 12 mice based on the body weight on the day before the start of treatment.
Group 3 (M1043 Antibody): Twelve BLM-induced pulmonary fibrosis model mice were intravenously administered vehicle supplemented with M1043 at a dose of 10 mg/kg twice weekly at day 7, 10, 14 and 17.
Group 4 (TRC105 human/mouse chimeric antibody): Twelve BLM-induced pulmonary fibrosis model mice were intravenously administered vehicle supplemented with TRC105 at a dose of 10 mg/kg twice weekly at day 7, 10, 14 and 17.
Group 5 (BIBF1120 inhibitor for Idiopathic Pulmonary Fibrosis—positive control, Boehringer Ingelheim): Twelve BLM-induced pulmonary fibrosis model mice were orally administered 1% CMC supplemented with BIBF1120 at a dose of 100 mg/kg once daily from day 7 to 21. […]
Histological analysis of lung sections was conducted by practitioners who are not aware of the Group identity. Masson's Trichrome staining is conducted and an Ashcroft Score estimate was determined. […]

[3] abbreviates: 10 mg/kg IV twice weekly, day 28, mean ± SD, n = 8.
Setting [4] is: isotype-matched antibody vs disease control, M1043 Antibody vs isotype-matched antibody.

B1: M1043: rat IgG1 antibody that binds mouse endoglin and competitively inhibits mouse BMP binding; VH SEQ ID NO: 124, VL SEQ ID NO: 125 (antibody, V domains shown)
VH: QVQLQQSGAELVKPGSSVKISCKASGYTFTSYDMHWIKQQPGNGLEWIGWIYPGNGNTKYNQKFNGKATLTADKSSSTAYMQLSSLTSEDSAVYFCARGKFGVGDYWGQGVMVTVSS
VL: DTVLTQSPALAVSPGERVSISCRASEGVNSYMHWYQQKPGQQPKLLIYIASNLASGVPARFSGSGSGTDFTLTIDPVEADDTATYFCQQSWNDPYTFGAGTKLELKR
Turning to B1, the “General condition / abnormal findings” value in data set [1] (10 mg/kg IV twice weekly) is “no abnormal findings were observed”. In data set [1] (setting [3]), the “Body weight on the day of sacrifice” value is 20.5 ± 0.7 g, the Liver weight was determined as 896 ± 48 mg and the “Sirius red-positive area (fibrosis area)” value is 2.07 ± 0.52%. Further, the “Percentage of fibrosis area (Sirius red-positive area), comparison with isotype-matched antibody group” value in data set [1] (listed as Antibody M1043) is reported as “significant reduction of collagen deposition”. In data set [1] (listed as M1043 Antibody), the “Percentage of fibrosis area (Sirius red-positive area), comparison with isotype-matched antibody group” value is “significantly decreased”. The “Collagen deposition and bridging fibrosis in Sirius red-stained liver sections” value in data set [1] (histology, day 28) was “lower collagen deposition with less frequent formation of bridging fibrosis”. Also, in data set [1] (setting [4]), the “Body weight changes, comparison between groups” value is “no significant differences” and the “Body weight on the day of sacrifice, comparison between groups” value is “no significant differences”. Further, the “Mean liver weight, comparison between groups” value in data set [1] (isotype-matched antibody vs disease-control, M1043 Antibody vs isotype-matched antibody) was “no significant difference in mean body weight”. Further, the “Ashcroft score, comparison between groups” value in data set [2] is listed as “no significant difference”.

The record behind these values is patent publication US9926375B2, “Anti-endoglin antibodies and uses thereof” (Tracon Pharmaceuticals, Inc., priority 2014, dated 2018).
